Source: paper PMC6543813
Where two headings read alike, the source gives them in different places.

How the values were obtained:
[1] = target: recombinant VLDLR(1–8) fragment of the VLDL receptor; test: SPR
[2] = target: recombinant VLDLR(1–8) fragment of the VLDL receptor; test: SPR; remark: listed apart in the source
[3] = target: recombinant dimeric (β15–66)2 fragment (UniProt P02675); test: ELISA
[4] = target: (β15–66)2-K^21K^22 mutant fragment (UniProt P02675); test: ELISA
[5] = target: (β15–66)2-K^53K^54K^58 mutant fragment (UniProt P02675); test: ELISA
[6] = target: (β15–66)2-R^30 mutant fragment (UniProt P02675); test: ELISA
[7] = target: (β15–66)2-R^57 mutant fragment (UniProt P02675); test: ELISA
[8] = target: recombinant (β15–66)2-R^17 mutant with Arg17Glu mutation (UniProt P02675); test: ELISA
[9] = target: recombinant dimeric (β15–66)2 fragment (UniProt P02675); test: ELISA; remark: listed apart in the source

Row | Substance | Kd [1] | further results
1 | (β15–66)2-R^42R^44 mutant fragment (from UniProt P02675 45-94) (domain or fragment) | 204 nM | –
2 | (β15–66)2-K^53K^54R^57K^58 mutant fragment (from UniProt P02675 45-94) (domain or fragment) | 11700 nM | –
3 | (β15–66)2-K^53K^54K^58 mutant fragment (from UniProt P02675 45-94) (domain or fragment) | 250 nM | –
4 | recombinant VLDLR(1–8) fragment of the VLDL receptor (domain or fragment) | – | Kd [3]: 34.1 nM; Kd [4]: 21 nM; Kd [5]: 124 nM; Kd [6]: 6.3 nM; Kd [7]: 6.4 nM; Kd [8]: 7.3 nM; Kd [9]: 13.5 nM
5 | (β15–66)2-R^42R^44K^47 mutant fragment (from UniProt P02675 45-94) (domain or fragment) | 6100 nM | –
6 | recombinant monomeric β15–64 fragment (from UniProt P02675 45-94) (domain or fragment) | 6100 nM | –

Now from value to substance, other results behind:

Row | Kd [1] | Substance | further results
7 | 11.1 nM | recombinant dimeric (β15–66)2 fragment (from UniProt P02675 45-94) (domain or fragment) | Kd [2]: 20.5 nM
8 | 37 nM | (β15–66)2-K^21K^22 mutant fragment (from UniProt P02675 45-94) (domain or fragment) | –
9 | 175 nM | (β15–66)2-K^21K^22R^23 mutant fragment (from UniProt P02675 45-94) (domain or fragment) | –
